# In the supplement of paper PMC11246515:
# ± gives the standard deviation of the averaged measurements.
# Experiment: total protein half-life in vivo (active degradation + dilution); higher = more stable protein
# [1] = E. coli NCM3722 delta-clpP delta-lon delta-hslV, growth: N-lim chemostat, doubling time 6 h
# [2] = E. coli NCM3722 delta-clpP, growth: N-lim chemostat, doubling time 6 h
# [3] = E. coli NCM3722 delta-hslV, growth: N-lim chemostat, doubling time 6 h
# [4] = E. coli NCM3722 delta-lon, growth: N-lim chemostat, doubling time 6 h
# [5] = E. coli NCM3722 delta-smpB, growth: N-lim chemostat, doubling time 6 h
# [6] = wild type E. coli NCM3722, growth: C-lim chemostat, doubling time 3 h
# [7] = wild type E. coli NCM3722, growth: C-lim chemostat, doubling time 6 h
# [8] = wild type E. coli NCM3722, growth: C-lim chemostat, doubling time 12 h
# [9] = wild type E. coli NCM3722, growth: N-lim chemostat, doubling time 6 h
# [10] = wild type E. coli NCM3722, growth: N-lim chemostat, doubling time 12 h
# [11] = wild type E. coli NCM3722, growth: P-lim chemostat, doubling time 6 h
# [12] = wild type E. coli NCM3722, growth: P-lim chemostat, doubling time 12 h
Sequence,total protein half-life in vivo [1],total protein half-life in vivo [2],total protein half-life in vivo [3],total protein half-life in vivo [4],total protein half-life in vivo [5],total protein half-life in vivo [6],total protein half-life in vivo [7],total protein half-life in vivo [8],total protein half-life in vivo [9],total protein half-life in vivo [10],total protein half-life in vivo [11],total protein half-life in vivo [12]
MTLSSQHYLVITALGADRPGIVNTITRHVSSCGCNIEDSRLAMLGEEFTFIMLLSGSWNAITLIESTLPLKGAELDLLIVMKRTTARPRPPMPASVWVQVDVADSPHLIERFTALFDAHHMNIAELVSRTQPAENERAAQLHIQITAHSPASADAANIEQAFKALCTELNAQGSINVVNYSQHDEQDGVK [P0A9I3],4.9 ± 0.79 h,4.39 ± 0.19 h,4.53 ± 0.06 h,4.62 ± 0.24 h,4.056 ± 0.037 h,2.976 ± 0.012 h,5.48 ± 0.32 h,9.43 ± 3.2 h,4.42 ± 0.34 h,7.51 ± 0.33 h,5.71 ± 0.46 h,12.1 ± 1.4 h
MTMKKLLIIILPVLLSGCSAFNQLVERMQTDTLEYQCDEKPLTVKLNNPRQEVSFVYDNQLLHLKQGISASGARYTDGIYVFWSKGDEATVYKRDRIVLNNCQLQNPQR,5.8 ± 0.46 h,6.62 ± 0.99 h,6.27 h,6.49 ± 0.45 h,5.45 ± 0.23 h,3.27 ± 0.96 h,6.52 ± 1.3 h,13.5 ± 0.37 h,,14.4 ± 0.55 h,6.32 ± 0.75 h,13.8 ± 1.6 h
MTMNITSKQMEITPAIRQHVADRLAKLEKWQTHLINPHIILSKEPQGFVADATINTPNGVLVASGKHEDMYTAINELINKLERQLNKLQHKGEARRAATSVKDANFVEEVEEE [P0AD49],6.33 ± 1.1 h,4.87 h,1.49 h,,0.687 h,0.852 ± 0.17 h,2.32 h,2.47 ± 0.42 h,,1.07 h,,1.59 h
MTMYATLEEAIDAAREEFLADNPGIDAEDANVQQFNAQKYVLQDGDIMWQVEFFADEGEEGECLPMLSGEAAQSVFDGDYDEIEIRQEWQEENTLHEWDEGEFQLEPPLDTEEGRAAADEWDER,,6.11 h,3.33 h,3.3 ± 0.71 h,3.22 ± 0.1 h,2.35 ± 0.29 h,3.94 ± 0.066 h,6.75 ± 1.1 h,3.33 ± 0.17 h,4.03 h,3.9 ± 0.2 h,7.26 h
MTNLTLDVNIIDFPSIPVAMLPHRCSPELLNYSVAKFIMWRKETGLSPVNQSQTFGVAWDDPATTAPEAFRFDICGSVSEPIPDNRYGVSNGELTGGRYAVARHVGELDDISHTVWGIIRHWLPASGEKMRKAPILFHYTNLAEGVTEQRLETDVYVPLA,6.15 h,,,,,,,,,,,
MTNNPPSAQIKPGEYGFPLKLKARYDNFIGGEWVAPADGEYYQNLTPVTGQLLCEVASSGKRDIDLALDAAHKVKDKWAHTSVQDRAAILFKIADRMEQNLELLATAETWDNGKPIRETSAADVPLAIDHFRYFASCIRAQEGGISEVDSETVAYHFHEPLGVVGQIIPWNFPLLMASWKMAPALAAGNCVVLKPARLTPLSVLLLMEIVGDLLPPGVVNVVNGAGGVIGEYLATSKRIAKVAFTGSTEVGQQIMQYATQNIIPVTLELGGKSPNIFFADVMDEEDAFFDKALEGFALFAFNQGEVCTCPSRALVQESIYERFMERAIRRVESIRSGNPLDSVTQMGAQVSHGQLETILNYIDIGKKEGADVLTGGRRKLLEGELKDGYYLEPTILFGQNNMRVFQEEIFGPVLAVTTFKTMEEALELANDTQYGLGAGVWSRNGNLAYKMGRGIQAGRVWTNCYHAYPAHAAFGGYKQSGIGRETHKMMLEHYQQTKCLLVSYSDKPLGLF,,4.04 ± 0.7 h,2.42 ± 0.5 h,2.83 ± 0.035 h,2.42 ± 0.14 h,2.73 ± 0.41 h,5.1 ± 0.31 h,7.87 ± 0.019 h,2.77 ± 0.77 h,4.07 ± 0.55 h,3.08 ± 1.1 h,6.36 ± 0.73 h
MTNPQFAGHPFGTTVTAETLRNTFAPLTQWEDKYRQLIMLGKQLPALPDELKAQAKEIAGCENRVWLGYTVAENGKMHFFGDSEGRIVRGLLAVLLTAVEGKTAAELQAQSPLALFDELGLRAQLSASRSQGLNALSEAIIAATKQV [P0AGF2],4.97 ± 0.16 h,4.73 ± 0.56 h,4.9 ± 0.33 h,5.38 ± 0.38 h,4.87 ± 0.87 h,3.4 ± 0.066 h,5.18 ± 0.76 h,8.98 ± 0.8 h,4.504 ± 0.012 h,8.14 ± 0.94 h,5.64 ± 0.32 h,11.1 ± 0.35 h
MTNVLIVEDEQAIRRFLRTALEGDGMRVFEAETLQRGLLEAATRKPDLIILDLGLPDGDGIEFIRDLRQWSAVPVIVLSARSEESDKIAALDAGADDYLSKPFGIGELQARLRVALRRHSATTAPDPLVKFSDVTVDLAARVIHRGEEEVHLTPIEFRLLAVLLNNAGKVLTQRQLLNQVWGPNAVEHSHYLRIYMGHLRQKLEQDPARPRHFITETGIGYRFML,5.392 ± 0.013 h,5.1 ± 0.7 h,5.29 ± 0.32 h,4.99 ± 0.47 h,4.92 ± 0.36 h,3.04 ± 0.1 h,5.35 ± 0.76 h,10.1 ± 0.52 h,5.05 ± 0.32 h,9.806 ± 0.011 h,5.79 ± 0.17 h,10.1 ± 2 h
